Results published in paper PMC3253920 (Biochimica et Biophysica Acta, 2011).

Biological target: the molecule itself
Test: crystal structure

B1: native rat liver glycine N-methyltransferase (enzyme, UniProt P13255 2-293, looked up)
chain: VDSVYRTRSLGVAAEGIPDQYADGEAARVWQLYIGDTRSRTAEYKAWLLGLLRQHGCHRVLDVACGTGVDSIMLVEEGFSVTSVDASDKMLKYALKERWNRRKEPAFDKWVIEEANWLTLDKDVPAGDGFDAVICLGNSFAHLPDSKGDQSEHRLALKNIASMVRPGGLLVIDHRNYDYILSTGCAPPGKNIYYKSDLTKDITTSVLTVNNKAHMVTLDYTVQVPGAGRDGAPGFSKFRLSYYPHCLASFTELVQEAFGGRCQHSVLGDFKPYRPGQAYVPCYFIHVLKKTG
modifications: acetylated N-terminal valine (Val1)
Question: For B1, which “stoichiometry N” value is on record?
Answer: The value was 4.
